Source: PMC10456876 (2023)

Target: human telomeric nucleosome core particle (teloNCP) (human, UniProt P68431 1-136; P62805 1-103; P04908 1-130; P06899 1-124)
Assay: EMSA, concentration at 50% bound

EC50: 37 nM
B1: wild-type MBP-tagged TRF1core (TRF1-TIN2-TPP1) (complex)
chain 1: MAEDVSSAAPSPRGCADGRDADPTEEQMAETERNDEEQFECQELLECQVQVGAPEEEEEEEEDAGLVAEAEAVAAGWMLDFLCLSLCRAFRDGRSEDFRRTRNSAEAIIHGLSSLTACQLRTIYICQFLTRIAAGKTLDAQFENDERITPLESALMIWGSIEKEHDKLHEEIQNLIKIQAIAVCMENGNFKEAEEVFERIFGDPNSHMPFKSKLLMIISQKDTFHSFFQHFSYNHMMEKIKSYVNYVLSEKSSTFLMKAAAKVVESKRTRTITSQDKPSGNDVEMETEANLDTRKSVSDKQSAVTESSEGTVSLLRSHKNLFLSKLQHGTQQQDLNKKERRVGTPQSTKKKKESRRATESRIPVSKSQPVTPEKHRARKRQAWLWEEDKNLRSGVRKYGEGNWSKILLHYKFNNRTSVMLKDRWRTMKKLKLISSDSED
chain 2: MATPLVAGPAALRFAAAASWQVVRGRCVEHFPRVLEFLRSLRAVAPGLVRYRHHERLCMGLKAKVVVELILQGRPWAQVLKALNHHFPESGPIVRDPKATKQDLRKILEAQETFYQQVKQLSEAPVDLASKLQELEQEYGEPFLAAMEKLLFEYLCQLEKALPTPQAQQLQDVLSWMQPGVSITSSLAWRQYGVDMGWLLPECSVTDSVNLAEPMEQNPPQQQRLALHNPLPKAKPGTHLPQGPSSRTHPEPLAGRHFNLAPLGRRRVQSQWASTRGGHKERPTVMLFPFRNLGSPTQVISKPESKEEHAIYTADLAMGTRAASTGKSKSPCQTLGGRALKENPVDLPATEQKENCLDCYMDPLRLSLLPPRARKPVCPPSLCSSVITIGDLVLDSDEEENGQGEGKESLENYQKTKFDTLIPTLCEYLPPSGHGAIPVSSCDCRDSSRPL
chain 3: MAGSGRLVLRPWIRELILGSETPSSPRAGQLLEVLQDAEAAVAGPSHAPDTSDVGATLLVSDGTHSVRCLVTREALDTSDWEEKEFGFRGTEGRLLLLQDCGVHVQVAEGGAPAEFYLQVDRFSLLPTEQPRLRVPGCNQDLDVQKKLYDCLEEHLSESTSSNAGLSLSQLLDEMREDQEHQGALVCLAESCLTLEGPCTAPPVTHWAASRCKATGEAVYTVPSSMLCISENDQLILSSLGPCQRTQGPELPPPDPALQDLSLTLIASPPSSPSSSGTPALPGHMSSEESGTSISLLPALSLAAPDPGQRSSSQPSPAICSAPATLTPRSPHASRTPSSPLQSCTPSLSPRSHVPSPHQALVTRPQKPSLEFKEFVGLPCKNRPPFPRTGATRGAQEPCSVWEPPKRHRDGSAFQYEYEPPCTSLCARVQAVRLPPQLMAWALHFLMDAQPGSEPTPM
modifications: phosphoserine at 434, 435 and 437 (reported for the purified TRF1core sample from Sf9)
